Assay results from patent US12269880B2, “LAG3 binding peptides” (Leidos, Inc., priority 2019, dated 2025).
Several values for one entry are separate records, joined by “and”; a condition that tells them apart may be missing. Equal entries are not always repeated.

Key:
[1] = system: human peripheral blood mononuclear cell (PBMC); assay: Human PBMC-based recall assay (EBV and CMV viral-specific peptides); assay type: cell-based; conditions: seven days post-stimulation
Procedure: PBMCs were obtained from a human donor who had previously been identified as a positive responder to Epstein-Barr virus (EBV) and Cytomegalovirus (CMV) viral-specific peptides. 5×10^5 PBMCs in 200 μL of media were stimulated with EBV and CMV viral-specific peptides in the presence or absence of LAG3-11. Seven days post-stimulation, the percentage of virus-specific CD8+ T cells were identified via flow cytometry using MHC-I tetramers. Supernatants were also collected and the amount of […] determined via ELISA.

human LAG3/FGL1 = molecular target: T1, human LAG3/FGL1 (Homo sapiens, UniProt P18627); assay: Human LAG3/FGL1 TR-FRET binding assay (BPS Bioscience)
T1 construct: purchased BPS Bioscience
T1 sequence (P18627 23-450 limits assumed): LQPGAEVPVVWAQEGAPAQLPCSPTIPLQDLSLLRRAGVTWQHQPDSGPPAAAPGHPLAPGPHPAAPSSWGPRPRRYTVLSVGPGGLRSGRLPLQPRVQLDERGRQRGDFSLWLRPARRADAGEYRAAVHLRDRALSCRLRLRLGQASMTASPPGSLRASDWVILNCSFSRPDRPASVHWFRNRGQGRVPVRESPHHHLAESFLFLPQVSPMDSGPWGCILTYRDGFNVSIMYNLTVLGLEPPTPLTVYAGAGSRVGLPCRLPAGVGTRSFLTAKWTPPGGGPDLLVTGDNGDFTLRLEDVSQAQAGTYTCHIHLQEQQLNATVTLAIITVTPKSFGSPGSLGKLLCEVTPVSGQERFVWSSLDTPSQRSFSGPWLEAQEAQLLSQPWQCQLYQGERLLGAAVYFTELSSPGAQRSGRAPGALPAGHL
Procedure: The peptides were tested using a human LAG3/FGL1 TR-FRET binding assay (BPS Bioscience) carried out according to the manufacturer's instructions.
Peptide stocks of LAG3-11, LAG3-42, LAG3-48, LAG3-51, LAG3-54, LAG3-56, LAG3-60 and OVA were prepared at 1 mM followed by a 1:5 dilution in plate reactions. LAG3-11 and OVA were tested at 200, 50, 13, 3, 0.8, 0.2, 0.05, and 0.01 μM. The other peptides were tested at 200, 50, 13, and 3 μM. A neutralizing anti-human LAG3 antibody (BPS Bioscience Cat. #71219) was used as a positive control.
Reaction mixes were incubated 1 hr at RT before development. After development, plate was read in a Tecan M1000 TR-FRET instrument. Percent activity was calculated as follows: % Activity=100×[(sample−minimum)/(maximum−minimum)]

[2] = molecular target: T2, soluble recombinant human LAG3 (Homo sapiens, UniProt P18627); assay: Clonal phage ELISA after phage display bio-panning; assay type: binding
T2 construct: soluble recombinant human LAG3
T2 sequence (P18627 23-450 limits assumed): T1 sequence (P18627 23-450 limits assumed)
Excerpt: The TriCo-20™, TriCo-16™, Ph.D.-12™, and Ph.D. C7™ Phage Display Peptide Libraries (Creative Biolabs, 45-1 Ramsey Road, Shirley, NY 11967) were screened by performing several rounds of bio-panning to identify binders of soluble recombinant human LAG3.

LAG3/MHC-II interaction = molecular target: T3, LAG3/MHC-II interaction (Homo sapiens, UniProt P18627); assay: HTRF LAG3/MHC-II binding assay (Cisbio)
T3 construct: purchased Cisbio US Inc
T3 sequence (P18627 23-450 limits assumed): T1 sequence (P18627 23-450 limits assumed)
Excerpt: FIG. 2 is a graph showing the results of a homogeneous time-resolved fluorescence (HTRF) assay for peptide LAG3-11. Reference Ab-LAG3 is an anti-LAG3 antibody. OVA, the ovalbumin (OVA) peptide (ISQAVHAAHAEINEAGR, SEQ ID NO:8). “HTRF ratio” is the emission at 665 nm (acceptor)/emission at 620 nm (donor) multiplied by a factor or 10^4.
A homogeneous time-resolved fluorescence (HTRF) LAG3/MHC-II binding assay (Cisbio US Inc.) was used to measure the interaction between MHC-II and LAG3 in the presence of peptides. In this assay, the interaction between Tag1-LAG3 and Tag2-MHC-II is detected by using anti-Tag1-Terbium (HTRF donor) and anti-Tag2-XL665 (HTRF acceptor). When the donor and acceptor antibodies are brought into close proximity due to LAG3 and MHC-II binding, excitation of the donor antibody triggers fluorescent resonance energy transfer (FRET) towards the acceptor antibody, which in turn emits specifically at 665 nm. This specific signal is directly proportional to the extent of LAG3/MHC-II interaction. Thus, an agent that blocks the interaction between LAG3 and MHC-II will cause a reduction in HTRF ratio.
An anti-human LAG3 antibody (Novoprotein #GMP-A092, Lot 0331158, 500 nM) was tested in the assay at an eleven-point, serially diluted semi-log dose response curve starting at 100 nM and served as a positive control. The ovalbumin peptide was used as a negative control. Peptides were reconstituted at a concentration of 20 mM in […] and tested at an eleven-point dose response curve starting at 100 µM followed by 4-fold dilutions. […]

[3] = system: interaction with LAG3 and its ligand MHC-II; assay: Cell-based NFAT-luc2P luciferase reporter assay, LAG3 Jurkat / MHC-II Raji co-culture; set-up: species or system human; conditions: RLUs at 100 µM compared to RLUs at 0.64 µM
Excerpt: A cell-based reporter assay was used to assess whether binding of the seven peptides identified above was sufficient to block the interaction with LAG3 and its ligand MHC-II. The components of the assay include (1) a Jurkat T cell line that stably expresses human LAG3 and a stable NFAT-luc2P luciferase reporter, (2) a Raji cell line that expresses human MHC-II, and (3) a positive control anti-LAG3 antibody that blocks the interaction of LAG3 and MHC-II. In brief, Jurkat cells expressing LAG3 are stimulated with a T cell receptor (TCR) activator molecule, resulting in expression of luciferase. When the Jurkat cells are co-cultured with an a Raji cell line expressing the MHC-II molecule, the interaction of LAG3 on the surface of a Jurkat cell with MHC-II on the surface of a Raji cell inhibits T cell activation, leading to a reduction in luciferase expression. The addition of a neutralizing antibody against LAG3 blocks the inhibition signal and allows luciferase expression to proceed. BIO-GLO™ (Promega) was used to measure luciferase expression. The seven LAG3 peptides were tested at concentrations of 0, 0.64, 1.6, 4, 10, 25, & 100 µM.
Results of the assay testing the seven LAG3 peptides identified above and a negative control peptide ([…]; SEQ ID NO:9) are shown in FIG. 1B.

- Clonal Phase ELISA coated signal ([2]; coated): 0.271
- Clonal Phase ELISA uncoated signal ([2]; uncoated (background)): 0.093
- HTRF ratio (LAG3/MHC-II interaction; LOG [Compound] M tested for peptide −4, single replicates): 3213 and 3460 and 3458
- HTRF ratio (LAG3/MHC-II interaction; LOG [Compound] M tested for peptide −4.60206, single replicates): 4749 and 5287 and 5014
- HTRF ratio (LAG3/MHC-II interaction; LOG [Compound] M tested for peptide −5.20412, single replicates): 6812 and 6892 and 6696
- HTRF ratio (LAG3/MHC-II interaction; LOG [Compound] M tested for peptide −5.80618, single replicates): 7774 and 8164 and 7993
- HTRF ratio (LAG3/MHC-II interaction; LOG [Compound] M tested for peptide −6.40824): 8538 and 8718 and 8858
- HTRF ratio (LAG3/MHC-II interaction; LOG [Compound] M tested for peptide −7.0103, single replicates): 8794 and 8729 and 8889
- HTRF ratio (LAG3/MHC-II interaction; LOG [Compound] M tested for peptide −7.61236, single replicates): 9090 and 9036 and 9329
- HTRF ratio (LAG3/MHC-II interaction; LOG [Compound] M tested for peptide −8.21442, single replicates): 9012 and 9293 and 9067
- HTRF ratio (LAG3/MHC-II interaction; LOG [Compound] M tested for peptide −8.81648, single replicates): 8877 and 8955 and 8992
- HTRF ratio (LAG3/MHC-II interaction; LOG [Compound] M tested for peptide −9.41854, single replicates): 8591 and 6950 and 8287
- HTRF ratio (LAG3/MHC-II interaction; LOG [Compound] M tested for peptide −10.0206): 8212 and 8748 and 8700
- HTRF ratio (LAG3/MHC-II interaction; LOG [Compound] M tested for peptide −10.6227): 8886 and 8842 and 9097
Sequence: SAPWEPLHWPEDWWQGTGEW (LAG3-11 peptide)
- increase of IFN-7 secretion by human PBMCs ([1]; relative to the viral-specific peptides alone, ELISA): 3 fold
- increase in percentage of tetramer+ CD8 T cells ([1]; flow cytometry, MHC-I tetramers): ~2 fold
- inhibition of the interaction between human LAG3 and FGL1 (human LAG3/FGL1): inhibit the interaction between human LAG3 and FGL1
- disruption of LAG3 and MHC-II interaction (LAG3/MHC-II interaction; four independent experiments): disrupts the interaction of LAG3 and MHC-II
- fold inhibition (fold increase in luciferase activity) [3]: approximately 2.8 fold
